# Data as given in paper PMC9060471 (2022).
# B1: NCOA1-II peptide (competitor in the ALPHA competition experiment) (peptide)
# chain: LTERHKILHRLLQEGSPSD
# Target: 6xHis-TLX ligand-binding domain (UniProt Q9Y466 155-385)
# Sequence (Q9Y466 155-385): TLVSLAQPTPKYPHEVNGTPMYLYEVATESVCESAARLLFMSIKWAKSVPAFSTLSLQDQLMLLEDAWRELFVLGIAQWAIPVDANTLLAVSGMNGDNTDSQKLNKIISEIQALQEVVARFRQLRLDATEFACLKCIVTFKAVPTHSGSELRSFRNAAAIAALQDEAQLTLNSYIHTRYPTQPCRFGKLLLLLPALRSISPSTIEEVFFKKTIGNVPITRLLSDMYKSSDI
binder,measurement,value
B1,EC50,3.3 µM
